Data as given in US20070048268A1.

Target: human IL-21 receptor (human) (UniProt Q9HBE5)
Test: cell-based or functional assay

## human IL-21-saporin immunotoxin conjugate (from UniProt P20656 25-277)
  3H-thymidine incorporation of MOLT-13 cells, relative to IL-21 treated cells: 70%
  growth inhibition of IM-9 cells, Alamar Blue proliferation assay, maximal conjugate concentration (250 ng/ml): 79%
  growth inhibition of RAMOS cells, Alamar Blue proliferation assay, maximal conjugate concentration (250 ng/ml): 65%
  growth of DEL cells, density relative to untreated cells: 25%
  growth of HuT-78 cells, density relative to untreated cells: 33%
  growth of HuT-102 cells, density relative to untreated cells: 20%
  growth of YT cells, density relative to untreated cells: 33%
